Data as given in article PMC7969019 (Nucleic Acids Research, 2020).
Where no end group is shown, it is not given here. [ ]: non-standard residue; d: D form. pT = C[C@@H](OP(=O)(O)O)[C@H](N)C(=O)O; pS = N[C@@H](COP(=O)(O)O)C(=O)O

T1: human TFIIH p62 residues 1-158 (tandem PH and BSD1 domains) (human, UniProt P32780 1-158)
T1 sequence (looked up): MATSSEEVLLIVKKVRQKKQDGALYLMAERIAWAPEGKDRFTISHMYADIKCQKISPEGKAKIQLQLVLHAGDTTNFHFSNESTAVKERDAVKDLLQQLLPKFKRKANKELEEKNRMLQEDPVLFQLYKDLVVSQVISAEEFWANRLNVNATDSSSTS

B1: TFIIEα (residues 378-439), acidic domain (domain or fragment, UniProt P29083 378-439, looked up)
chain: EEDEEEDDEFEEVADDPIVMVAGRPFSYSEVSQRPELVAQMTPEEKEAYIAMGQRMFEDLFE

The binders below were run against T1, human TFIIH p62 residues 1-158 (tandem …) (assay: NMR titration).

Row | binding result | Binder
1 | binds | AEEDEDDEDFVEVPEKEGYEP (peptide, UniProt Q2YD98 399-419, looked up) [UVSSA (residues 399-419)]
2 | binds | EEEEESENDWEEVEELSEP (peptide, UniProt Q01831 124-142, looked up) [XPC (residues 124-142)]
3 | binds | DDLML[pS]PDDIEQWF[pT]EDPGPDE (peptide, UniProt P04637 41-62, looked up) [Ser46- and Thr55-phosphorylated p53 (residues 41-62)]
4 | binds | B1
